Laboratory results taken from patent US20140322130A1 (published 2014).
Where no end group is shown, it is not given here.

Target: T1, 15N-labelled recombinant EGFR287-302 peptide with methionine mutated to leucine (human, also: 15N-labelled, oxidized)
T1 construct: cleaved from an SH2 fusion with CNBr; also called 15N-labelled peptide
T1 peptide: CGADSYELEEDGVRKC
Assay: NMR, 15N HSQC

B1: Fab fragment of mAb806 (Fab, V domains shown)
VH: DVQLQESGPSLVKPSQSLSLTCTVTGYSITSDFAWNWIRQFPGNKLEWMGYISYSGNTRYNPSLKSRISITRDTSKNQFFLQLNSVTIEDTATYYCVTAGRGFPYWGQGTLVTVSA
VL: DILMTQSPSSMSVSLGDTVSITCHSSQDINSNIGWLQQRPGKSFKGLIYHGTNLDDEVPSRFSGSGSGADYSLTISSLESEDFADYYCVQYAQFPWTFGGGTKLEIKR
notes: papain Fab of the intact mAb; also called Fab806
binding result: binds
